Results from publication PMC12135040, “Long-Acting Human PASylated Leptin Reaches the Murine Central Nervous System and Offers Potential for Optimized Replacement Therapy” (Molecular Pharmaceutics, 2025).
Like-named read-outs stand apart in the source and are kept apart here.

T1: recombinant LepR-Fc fusion protein (human, UniProt P48357 22-839)
T1 sequence (looked up): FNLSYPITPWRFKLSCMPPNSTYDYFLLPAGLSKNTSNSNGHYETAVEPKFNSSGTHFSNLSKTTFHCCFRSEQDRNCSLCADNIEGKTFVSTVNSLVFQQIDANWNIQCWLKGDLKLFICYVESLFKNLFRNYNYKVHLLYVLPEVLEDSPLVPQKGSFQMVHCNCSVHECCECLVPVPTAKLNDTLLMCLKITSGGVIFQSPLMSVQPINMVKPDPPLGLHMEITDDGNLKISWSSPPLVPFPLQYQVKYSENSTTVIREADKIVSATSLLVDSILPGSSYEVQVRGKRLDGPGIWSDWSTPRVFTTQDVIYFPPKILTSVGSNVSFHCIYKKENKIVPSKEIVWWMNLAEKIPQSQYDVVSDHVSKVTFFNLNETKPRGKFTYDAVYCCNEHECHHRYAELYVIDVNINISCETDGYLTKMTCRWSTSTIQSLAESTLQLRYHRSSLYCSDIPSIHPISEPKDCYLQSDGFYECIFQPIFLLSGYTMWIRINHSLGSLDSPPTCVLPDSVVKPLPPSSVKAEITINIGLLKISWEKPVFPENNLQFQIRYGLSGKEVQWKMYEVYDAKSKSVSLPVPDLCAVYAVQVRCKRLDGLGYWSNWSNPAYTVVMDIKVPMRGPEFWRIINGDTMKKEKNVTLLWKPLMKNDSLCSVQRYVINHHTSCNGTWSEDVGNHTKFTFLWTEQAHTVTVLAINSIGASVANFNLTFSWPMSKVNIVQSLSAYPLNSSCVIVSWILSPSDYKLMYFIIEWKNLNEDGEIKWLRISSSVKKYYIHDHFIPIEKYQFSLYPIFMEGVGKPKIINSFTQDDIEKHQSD


Tests used:
[1] = molecular target: T1, recombinant LepR-Fc fusion protein
[2] = molecular target: T1, recombinant LepR-Fc fusion protein; test: cell-based or functional assay

Chain of human wild-type leptin (recombinant, unmodified) (P41159 22-167): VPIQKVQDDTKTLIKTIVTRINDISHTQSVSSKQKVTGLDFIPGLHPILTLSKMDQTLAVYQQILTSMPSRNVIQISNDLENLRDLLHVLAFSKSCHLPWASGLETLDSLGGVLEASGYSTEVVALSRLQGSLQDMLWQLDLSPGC

Molecule | EC50 of STAT3-responsive dual luciferase reporter in HEK293 cells transiently transfected with human LepRb (whole receptor on cells); leptin 50 fM to 500 nM, 18 h [1] | other results
PAS(200)-huLeptin (human wild-type leptin, PASylated) (from UniProt P41159 22-167) (ligand) |  | EC50 of STAT3-responsive dual luciferase reporter in HEK293 cells transiently transfected with human LepRb (whole receptor on cells); PASylated leptin 50 fM to 500 nM, 18 h [1]: 1.2 nM
huLeptin^W100E (recombinant, unmodified) (from UniProt P41159 22-167) (ligand) | 0.1 nM | 
murine leptin (recombinant, unmodified) (from UniProt P41160 22-167) (ligand) | 0.04 nM | 
His6-PAS(200)-muLeptin (ligand) ASPAAPAPASPAAPAPSAPAASPAAPAPASPAAPAPSAPAASPAAPAPASPAAPAPSAPAASPAAPAPASPAAPAPSAPAASPAAPAPASPAAPAPSAPAASPAAPAPASPAAPAPSAPAASPAAPAPASPAAPAPSAPAASPAAPAPASPAAPAPSAPAASPAAPAPASPAAPAPSAPAASPAAPAPASPAAPAPSAPAAVPIQKVQDDTKTLIKTIVTRINDISHTQSVSAKQRVTGLDFIPGLHPILSLSKMDQTLAVYQQVLTSLPSQNVLQIANDLENLRDLLHLLAFSKSCSLPQTSGLQKPESLDGVLEASLYSTEVVALSRLQGSLQDILQQLDVSPEC |  | EC50 of STAT3-responsive dual luciferase reporter in HEK293 cells transiently transfected with human LepRb (whole receptor on cells); PASylated leptin 50 fM to 500 nM, 18 h [2]: 0.16 nM

Now from value to molecule, other results behind:

EC50 of STAT3-responsive dual luciferase reporter in HEK293 cells transiently transfected with human LepRb (whole receptor on cells); leptin 50 fM to 500 nM, 18 h [1] | Molecule | other results
0.13 nM | huLeptin^W100Q (recombinant, unmodified) (from UniProt P41159 22-167) (ligand) | 
0.1 nM | human wild-type leptin (recombinant, unmodified) (from UniProt P41159 22-167) (ligand) | 
